The target of series [1] is T1, PiCypA (cyclophilin A-like protein) (Piriformospora indica, UniProt C6KGV3 1-164). As to the kind of experiment: ITC. Background: ITC needs no label: the signal is the heat of the interaction.
The target of series [2] is T1, PiCypA (cyclophilin A-like protein). As to the kind of experiment: ITC. This is another data set of the same source.

One may read the Kd as the concentration at which binding is half-saturated. A lower Kd goes with tighter binding.

Take AAAAAAAAAAAAA (ssRNA) [13 mer poly-A RNA]: the binding result in series [1] is “no binding”. For AUAGCCUCAACCG (ssRNA) [13 mer RNA], in series [2], binding was put at a Kd of 22.5 µM.

Source of the values: publication PMC3801112.
